# Results reported in patent US20150274799A1, “GLP-1 ANALOGUE, ITS PREPARATION METHODS AND USE THEREOF” (TIANJIN INSTITUTE OF PHARMACEUTICAL RESEARCH, priority 2011, published 2015).
# Ends that are not written are not given here.
# Assays:
# [1] = cited from earlier work
# [2] = in vivo; cited from earlier work
substance,measurement,setting,value
HAEGTFTSDVSSYLEGQAAKEFIAWLVKGRG [GLP-1],serum half-life,[1],3 to 5 min
same,half-life of GLP-1 administered alone,[2],3 to 5 min
"^7HAEGT FTSDVSSYLEGQAAKEFICWLCKGRG^37GG C GGGGG GGGGG (HAEGTFTSDVSSYLEGQAAKEFICWLCKGRGGGCGGGGGGGGGG; disulfide (positions not given here); also: contains disulfide bonds, places not given here (three Cys)) [SEQ ID NO 58]",half-life in human serum,,> 24 h
"^7HAEGT FTSDVSSYLEGQAAKEFICWLCKGRG^37GG C GGGGG GGGGGGGGGG (HAEGTFTSDVSSYLEGQAAKEFICWLCKGRGGGCGGGGGGGGGGGGGGG; disulfide (positions not given here); also: contains disulfide bonds, places not given here (three Cys)) [SEQ ID NO 59]",half-life in human serum,,> 24 h
